{
  "source": "paper PMC12273574",
  "about": "“Biochemical and structural characterization of a GNAT superfamily protein acetyltransferase from Helicobacter pylori” (The Journal of Biological Chemistry, 2025)",
  "proteins": {"B1": {"name": "HP0935 (Helicobacter pylori 26695) (protein)", "chain": "MTIKVFSPKYPTELEEFYAERIADNPLGFIQRLDLLPSISGFVQKLREHGGEFFEMREGNKLIGICGLNPINQTEAELCKFHINSAYQSQGLGQKLYESVEKYAFIKGYTKISLHVSKSQIKACNLYQKLGFVHIKEEDCVVELGEETLIFPTLFMEKILS"}},
  "assay_in_all_cases": "purified protein",
  "key": {"purified protein [1]": {"substrate": "CC(=O)NCCCC[C@H](N)C(=O)O", "details": "14C-ACO, 800 nM enzyme; Nα-amino group acetylated; unit μM as printed beside mM for the Nα-acetyl isomer"}, "purified protein [2]": {"substrate": "CC(=O)SCCNC(=O)CCNC(=O)[C@H](O)C(C)(C)COP(=O)(O)OP(=O)(O)OC[C@H]1O[C@@H](n2cnc3c(N)ncnc32)[C@H](O)[C@@H]1OP(=O)(O)O", "details": "50 mM lysine, 5-50 μM 14C-ACO, 800 nM enzyme, pH 8.0, 30 °C; labelled compound; pH 8.0; 30.0 °C"}, "purified protein [3]": {"substrate": "NCCCC[C@H](N)C(=O)O", "details": "50 μM 14C-ACO, 1-50 mM lysine, 800 nM enzyme, pH 8.0, 30 °C; pH 8.0; 30.0 °C"}},
  "data": [
    {"protein": "B1", "values": [
      {"measurement": "Km", "setting": "purified protein [1]", "value": 26.71, "unit": "µM"},
      {"measurement": "Km", "setting": "purified protein [2]", "value": 21.44, "unit": "µM"},
      {"measurement": "Km", "setting": "purified protein [3]", "value": 31310, "unit": "µM"}
    ]}
  ]
}
